Results: the Immune Epitope Database (IEDB)

Tests used:
[1] = molecular target: HLA-B*18:01; experiment: IEDB peptide-MHC binding, purified MHC/competitive/fluorescence; filed as Kd, often an IC50 or EC50 that approximates it; ≥ and ≤ were set here for values at or beyond the usual limits of such assays; conditions: source organism: Cryptococcus neoformans var. neoformans B-3501A
[2] = molecular target: HLA-B*46:01; experiment: as above; conditions: source organism: Cryptococcus neoformans var. neoformans B-3501A
[3] = molecular target: HLA-A*03:01; experiment: as above
[4] = molecular target: HLA-B*15:01; experiment: as above; conditions: source organism: Cryptococcus neoformans var. neoformans B-3501A
[5] = molecular target: HLA-A*02:01; experiment: as above; conditions: source organism: Cryptococcus neoformans var. neoformans B-3501A
[6] = molecular target: HLA-A*26:01; experiment: as above
[7] = molecular target: HLA-B*27:03; experiment: as above
[8] = molecular target: HLA-B*57:01; experiment: as above; conditions: source organism: Cryptococcus neoformans var. neoformans B-3501A
[9] = molecular target: HLA-B*39:01; experiment: as above; conditions: source organism: Cryptococcus neoformans var. neoformans B-3501A
[10] = molecular target: HLA-A*11:01; experiment: IEDB peptide-MHC binding, purified MHC/competitive/fluorescence; ≥ and ≤ were set here for values at or beyond the usual limits of such assays
[11] = molecular target: HLA-B*18:01; experiment: IEDB peptide-MHC binding, purified MHC/direct/fluorescence; filed as Kd, often an IC50 or EC50 that approximates it; ≥ and ≤ were set here for values at or beyond the usual limits of such assays; conditions: source organism: Reston ebolavirus - Reston
[12] = molecular target: HLA-B*46:01; experiment: as above; conditions: source organism: Reston ebolavirus - Reston
[13] = molecular target: HLA-A*03:01; experiment: as above; conditions: source organism: Reston ebolavirus - Reston
[14] = molecular target: HLA-B*15:01; experiment: as above; conditions: source organism: Reston ebolavirus - Reston
[15] = molecular target: HLA-B*58:01; experiment: as above; conditions: source organism: Reston ebolavirus - Reston
[16] = molecular target: HLA-B*08:01; experiment: as above; conditions: source organism: Reston ebolavirus - Reston
[17] = molecular target: HLA-A*02:01; experiment: as above; conditions: source organism: Reston ebolavirus - Reston
[18] = molecular target: HLA-B*44:02; experiment: as above; conditions: source organism: Reston ebolavirus - Reston
[19] = molecular target: HLA-A*69:01; experiment: as above; conditions: source organism: Reston ebolavirus - Reston
[20] = molecular target: HLA-B*27:05; experiment: as above; conditions: source organism: Reston ebolavirus - Reston
[21] = molecular target: HLA-A*31:01; experiment: as above; conditions: source organism: Reston ebolavirus - Reston
[22] = molecular target: HLA-A*01:01; experiment: as above; conditions: source organism: Reston ebolavirus - Reston
[23] = molecular target: HLA-B*57:01; experiment: as above; conditions: source organism: Reston ebolavirus - Reston
[24] = molecular target: HLA-B*40:01; experiment: as above; conditions: source organism: Reston ebolavirus - Reston
[25] = molecular target: HLA-A*29:02; experiment: as above; conditions: source organism: Reston ebolavirus - Reston
[26] = molecular target: HLA-A*11:01; experiment: as above; conditions: source organism: Reston ebolavirus - Reston
[27] = molecular target: HLA-B*15:17; experiment: IEDB peptide-MHC binding, purified MHC/competitive/fluorescence; filed as Kd, often an IC50 or EC50 that approximates it; ≥ and ≤ were set here for values at or beyond the usual limits of such assays; conditions: source organism: Reston ebolavirus
[28] = molecular target: HLA-A*02:17; experiment: IEDB peptide-MHC binding, purified MHC/competitive/radioactivity; filed as Kd, often an IC50 or EC50 that approximates it; ≥ and ≤ were set here for values at or beyond the usual limits of such assays
[29] = molecular target: HLA-A*68:02; experiment: as above; conditions: source organism: Dengue virus 3 Martinique/1243/1999
[30] = molecular target: HLA-A*02:03; experiment: as above
[31] = molecular target: HLA-A*02:06; experiment: as above; conditions: source organism: Dengue virus 3 Martinique/1243/1999
[32] = molecular target: HLA-A*02:01; experiment: as above
[33] = molecular target: HLA-A*02:01; experiment: IEDB peptide-MHC binding, purified MHC/competitive/fluorescence; ≥ and ≤ were set here for values at or beyond the usual limits of such assays; conditions: source organism: Zaire ebolavirus
[34] = source organism: Cryptococcus neoformans var. neoformans B-3501A
[35] = source organism: Sudan ebolavirus
[36] = source organism: Reston ebolavirus
[37] = source organism: Dengue virus 3 China/80-2/1980
[38] = source organism: Dengue virus 3 Martinique/1243/1999
[39] = source organism: Zaire ebolavirus
[40] = source organism: Dengue virus 1 Singapore/S275/1990
[41] = source organism: Dengue virus 1 Brazil/97-11/1997

## AIDDFCLFA
[1]
  Kd: ≥ 20000 nM
[2]
  Kd: ≥ 20000 nM
[3]; [34]
  Kd: ≥ 20000 nM
[4]
  Kd: ≥ 20000 nM
[5]
  Kd: 13.5 nM
[6]; [34]
  Kd: ≥ 20000 nM
[7]; [34]
  Kd: ≥ 20000 nM
[8]
  Kd: ≥ 20000 nM
[9]
  Kd: ≥ 20000 nM

## EDDDAASSR
[10]; [35]
  IC50: ≥ 70900 nM

## FHRKKTDAL
[11]
  Kd: ≥ 20000 nM
[12]
  Kd: ≥ 20000 nM
[13]
  Kd: ≥ 20000 nM
[14]
  Kd: ≥ 20000 nM
[15]
  Kd: ≥ 20000 nM
[16]
  Kd: 451 nM
[17]
  Kd: ≥ 20000 nM
[18]
  Kd: ≥ 20000 nM
[19]
  Kd: ≥ 20000 nM
[20]
  Kd: ≥ 20000 nM
[21]
  Kd: ≥ 20000 nM
[22]
  Kd: ≥ 20000 nM
[23]
  Kd: ≥ 20000 nM
[24]
  Kd: ≥ 20000 nM
[25]
  Kd: ≥ 20000 nM
[26]
  Kd: ≥ 20000 nM
[27]
  Kd: ≥ 20000 nM
[6]; [36]
  Kd: ≥ 20000 nM
[7]; [36]
  Kd: ≥ 20000 nM

## FLAIPPTAGV
[28]; [37]
  Kd: 11.9 nM
[29]
  Kd: 9.73 nM
[30]; [38]
  Kd: 1.72 nM
[31]
  Kd: 120 nM

## GEWAFWENK
[10]; [35]
  IC50: 26200 nM

## GIMTIDLDPV
[32]; [37]
  Kd: 11.7 nM
[28]; [37]
  Kd: 2080 nM
[30]; [38]
  Kd: 25.2 nM
[31]
  Kd: 83 nM

## GLFNYFFGK
[3]; source organism: Entamoeba histolytica HM-1:IMSS
  Kd: 41 nM

## GVNNLEHGL
[33]
  IC50: 6440 nM
[10]; [39]
  IC50: ≥ 132000 nM

## LLANILSEK
[3]; source organism: Rickettsia sibirica 246
  Kd: 7.8 nM

## LLATSIFKL
[32]; [40]
  Kd: 5 nM
[28]; [40]
  Kd: 22.7 nM
[30]; [41]
  Kd: 14.3 nM

## LLMLLPTALA
[32]; [40]
  Kd: 128 nM
[28]; [40]
  Kd: 5210 nM
[30]; [41]
  Kd: 49.9 nM

## LMSGKDVFYL
[32]; [37]
  Kd: 4.76 nM
[28]; [37]
  Kd: 8.67 nM

## QAKKDFFSS
[10]; [39]
  IC50: 66800 nM
